Measurements as given in IntAct's records for PubMed 22773792.

B1: Stage VI sporulation protein D (Bacillus subtilis), P37963 (parent)
chain: MPQNHRLQFSVEESICFQKGQEVSELLSISLDPDIRVQEVNDYVSIIGSLELTGEYNIDQNKHTEEIYTDKRFVEQVRKREDGSAELTHCFPVDITIPKNKVSHLQDVFVFIDAFDYQLTDSRILTIQADLAIEGLLDDTQDKEPEIPLYEAPAAFREEELSEPPAHSVVEEPGASSAEEAVLQHEPPAEPPELFISKAGLREELETEKAESEPPESVASEPEAREDVKEEEESEELAVPETEVRAESETEESEPEPDPSEIEIQEIVKAKKETAEPAAAIADVREEADSPAETELREHVGAEESPALEAELHSETVIAKEKEETTVSPNHEYALRQEAQNEEAAQSDQADPALCQEEAEPDEALESVSEAALSIEDSRETASAVYMENDNADLHFHFNQKTSSEEASQEELPEPAYRTFLPEQEEEDSFYSAPKLLEEEEQEEESFEIEVRKTPSAEEPKEETPFQSFQLPESSETERKETDAVPRVAPAAETKEPQTKESDNSLYLTKLFTKEADEFSRMKICIVQQEDTIERLCERYEITSQQLIRMNSLALDDELKAGQILYIPQYKNSHA
partner: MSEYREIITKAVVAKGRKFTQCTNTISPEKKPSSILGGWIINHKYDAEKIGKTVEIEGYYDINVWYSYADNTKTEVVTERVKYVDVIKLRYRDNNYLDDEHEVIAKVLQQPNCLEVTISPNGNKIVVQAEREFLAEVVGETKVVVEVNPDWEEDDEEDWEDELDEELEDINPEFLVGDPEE

Variants of: B1
Conditions: with cote_bacsu cotE

Variant | effect of a mutation on the interaction
MPQNHRLQFSVEESICFQKGQEVSELLSISLDPDIRVQEVNDYVSIIGSLELTGEYNIDQNKHTEEIYTDKRFVEQVRKREDGSAELTHCFPVDITIPKNKVSHLQDVFVFIDAFDYQLTDSRILTIQADAAIEGLLDDTQDKEPEIPLYEAPAAFREEELSEPPAHSVVEEPGASSAEEAVLQHEPPAEPPELFISKAGLREELETEKAESEPPESVASEPEAREDVKEEEESEELAVPETEVRAESETEESEPEPDPSEIEIQEIVKAKKETAEPAAAIADVREEADSPAETELREHVGAEESPALEAELHSETVIAKEKEETTVSPNHEYALRQEAQNEEAAQSDQADPALCQEEAEPDEALESVSEAALSIEDSRETASAVYMENDNADLHFHFNQKTSSEEASQEELPEPAYRTFLPEQEEEDSFYSAPKLLEEEEQEEESFEIEVRKTPSAEEPKEETPFQSFQLPESSETERKETDAVPRVAPAAETKEPQTKESDNSLYLTKLFTKEADEFSRMKICIVQQEDTIERLCERYEITSQQLIRMNSLALDDELKAGQILYIPQYKNSHA [L131A] | disrupting interaction

Variants of: B1
Conditions: with cote_bacsu cotE
Remark: another data set of the same source

Variant | effect of a mutation on the interaction
MPQNHRLQFSVEESICFQKGQEVSELLSISLDPDIRVQEVNDYVSIIGSLELTGEYNIDQNKHTEEIYTDKRFVEQVRKREDGSAELTHCFPVDITIPKNKVSHLQDVFVFIDAFDYQLTDSRILTIQADAAIEGLLDDTQDKEPEIPLYEAPAAFREEELSEPPAHSVVEEPGASSAEEAVLQHEPPAEPPELFISKAGLREELETEKAESEPPESVASEPEAREDVKEEEESEELAVPETEVRAESETEESEPEPDPSEIEIQEIVKAKKETAEPAAAIADVREEADSPAETELREHVGAEESPALEAELHSETVIAKEKEETTVSPNHEYALRQEAQNEEAAQSDQADPALCQEEAEPDEALESVSEAALSIEDSRETASAVYMENDNADLHFHFNQKTSSEEASQEELPEPAYRTFLPEQEEEDSFYSAPKLLEEEEQEEESFEIEVRKTPSAEEPKEETPFQSFQLPESSETERKETDAVPRVAPAAETKEPQTKESDNSLYLTKLFTKEADEFSRMKICIVQQEDTIERLCERYEITSQQLIRMNSLALDDELKAGQILYIPQYKNSHA [L131A] | decreasing interaction strength
MPQNHRLQFSVEESICFQKGQEVSELLSISLDPDIRVQEVNDYVSIIGSLELTGEYNIDQNKHTEEIYTDKRFVEQVRKREDGSAELTHCFPVDITIPKNKVSHLQDVFVFIDAFDYQLTDSRILTAQADLAIEGLLDDTQDKEPEIPLYEAPAAFREEELSEPPAHSVVEEPGASSAEEAVLQHEPPAEPPELFISKAGLREELETEKAESEPPESVASEPEAREDVKEEEESEELAVPETEVRAESETEESEPEPDPSEIEIQEIVKAKKETAEPAAAIADVREEADSPAETELREHVGAEESPALEAELHSETVIAKEKEETTVSPNHEYALRQEAQNEEAAQSDQADPALCQEEAEPDEALESVSEAALSIEDSRETASAVYMENDNADLHFHFNQKTSSEEASQEELPEPAYRTFLPEQEEEDSFYSAPKLLEEEEQEEESFEIEVRKTPSAEEPKEETPFQSFQLPESSETERKETDAVPRVAPAAETKEPQTKESDNSLYLTKLFTKEADEFSRMKICIVQQEDTIERLCERYEITSQQLIRMNSLALDDELKAGQILYIPQYKNSHA [I127A] | decreasing interaction strength
